Target: T1, Lp-PLA2 (Homo sapiens, UniProt Q13093)
T1 construct: purchased diaDexus, USA
T1 sequence (Q13093 22-441): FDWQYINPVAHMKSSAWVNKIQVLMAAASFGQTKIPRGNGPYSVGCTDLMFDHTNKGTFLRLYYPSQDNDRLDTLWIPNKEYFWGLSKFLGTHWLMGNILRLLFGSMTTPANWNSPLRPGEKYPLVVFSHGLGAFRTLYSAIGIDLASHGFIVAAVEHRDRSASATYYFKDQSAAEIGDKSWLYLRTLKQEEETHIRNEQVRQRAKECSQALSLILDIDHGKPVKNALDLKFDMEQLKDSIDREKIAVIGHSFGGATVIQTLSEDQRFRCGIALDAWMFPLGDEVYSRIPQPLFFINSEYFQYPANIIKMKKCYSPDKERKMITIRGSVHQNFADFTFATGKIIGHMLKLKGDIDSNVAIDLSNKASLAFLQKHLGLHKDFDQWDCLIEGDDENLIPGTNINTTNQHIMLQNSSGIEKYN
Assay: Competition binding of Lp-PLA2 to Apo C-III-coated microplate (ELISA, absorbance)
Description: After Apo C-III was diluted with 100 mM carbonate buffer (pH 9.5) at a concentration of 2 μg/ml, the Apo C-III solution (100 μl) was added to each well in a microplate, which was coated at 37° C. incubator for 2 hrs. And then, the Apo C-III solution was removed from each well and 200 μl PBS supplemented with 1% BSA was added to each well. After incubation at 37° C. incubator, the solution was removed from each well that was then dried.
Tween-20 (0.05%)-containing PBS buffer (pH 7.4) was used for dilution, reaction and washing buffer in the experiment. Each 100 μl Lp-PLA2 (1 μg/ml) was added to Apo C-III-coated microplate well (FIG. 2a). Or, Lp-PLA2 and Apo C-III was diluted at a final concentration of 1 μg/ml and 0.5 μg/ml, respectively, and the solution (100 μl) was added to Apo C-III-coated microplate well (FIG. 2b). Each reaction preparation was incubated at 37° C. incubator for 50 min, and then removed from the well, followed by washing 2 times. Anti-Lp-PLA2 antibody solution (100 μl) diluted to 5 μg/ml was added to the washed well and incubated at 37° C. incubator for 50 min. The solution was removed and each well was washed 2 times. […] After 100 μl H2SO4 (2 N) was added to each washed well, the absorbance was measured. The measurement of absorbance utilized TECAN Infinit M200: wavelength measurement, 450 nm; and calibration wavelength, 620 nm. […]

- Final signal intensity (absorbance: Ab 620 nm), mean (Lp-PLA2 1 μg/ml plus free Apo C-III 0.5 μg/ml added to Apo C-III-coated microplate well, Lp-PLA2 alone gave 0.208): 0.130
- reduction of signal compared with sample without free Apo C-III (Lp-PLA2 1 μg/ml plus free Apo C-III 0.5 μg/ml, Apo C-III-coated microplate): 37.6%
Substance: Apolipoprotein C-III [Apo C-III]

From patent US20130071835A1, “Qualitative and Quantitative Analytical Method for Analyzing the Activity Type of an Enzyme that is Activated by Proteolysis” (Nanoenteck, Inc., priority 2010, published 2013)
